From US20160075746A1 (published 2016) come the findings set out here.

Primed or numbered codes have the meaning given here. [ ]: non-standard residue; d: D form. The star is where a group is joined. PE = proline (from (4R)-azidoproline) carrying a 1,2,3-triazole-linked chondroitin sulfate E (CS-E) disaccharide; Biotin = O=C1N[C@H]2[C@H](CS[C@H]2CCCCC(=O)*)N1; PEG12″ = not defined here; PEG12′ = PEG12: -

What is called Kd is the free concentration of one partner at which half of the binding sites on the other are occupied at equilibrium, for simple one-to-one binding. A lower Kd goes with higher affinity. By koff is commonly meant the first-order rate constant of dissociation. A higher koff goes with fast dissociation. Broadly, the kon is a measure of how fast the partners come together.

Assay [1] concerns the target nerve growth factor (NGF). As to the kind of experiment: SPR, glycopeptide immobilised, NGF analyte, two-state model.
The target of assay [2] is nerve growth factor (NGF). Description: SPR, glycopeptide immobilised, NGF analyte, two-state model, kd1.
Chain of nerve growth factor (NGF) (chain, as listed by the source): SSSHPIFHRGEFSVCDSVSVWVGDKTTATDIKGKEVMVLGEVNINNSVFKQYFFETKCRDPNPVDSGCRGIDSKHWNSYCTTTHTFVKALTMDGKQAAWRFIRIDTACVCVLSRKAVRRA
The target of assay [3] is nerve growth factor (NGF). Description: SPR (Biacore T100), glycopeptide immobilised on streptavidin CM5 chip, NGF 11-185 nM as analyte, two-state model, ka1. A general note: SPR reads the build-up and loss of mass on a sensor chip optically.
The target in assay [4] is nerve growth factor (NGF). Description: ELISA, glycopeptide on streptavidin plate, NGF 0-60 nM, anti-NGF-HRP detection. (In general: In an ELISA, binding on a coated surface is turned into a signal by an enzyme label.)
In assay [5] the target is nerve growth factor (NGF). Description: cell-based or functional assay.
For assay [6], the target named is nerve growth factor (NGF). As to the kind of experiment: SPR, two-state model, comparison of KD values with glycopeptide 1.

B1: glycopeptide 1 (peptide)
peptide: {Biotin-PEG12′}-[PE][PE][PE][PE][PE][PE][PE][PE][PE][PE][PE][PE]-OMe
notes: Immobilised through biotin on streptavidin in ELISA and SPR; also called agent 1; CS-E sulfated glycopeptide 1
In turn, B1 yielded a Kd in assay [1] of 2500 nM. In assay [2], this molecule displayed a dissociation rate constant (koff) of 0.0322 s⁻¹. Moreover, the kon in assay [3] turned out to be 1950 M⁻¹ s⁻¹.

B2: glycopeptide 4 (peptide)
peptide: {Biotin-PEG12″}-P[PE]P[PE]P[PE]P[PE]P[PE]P[PE]P[PE]P[PE]P[PE]P[PE]P[PE]P[PE]-OMe
notes: also called agent 4; (PPE)12
As to B2, the “fold increase in NGF binding affinity in comparison to 1” value in assay [4] was ~2.6 fold.

B3: glycopeptide 5 (peptide)
peptide: {Biotin-PEG12′}-PP[PE]PP[PE]PP[PE]PP[PE]PP[PE]PP[PE]PP[PE]PP[PE]PP[PE]PP[PE]PP[PE]PP[PE]-OMe
notes: All 12 CS-E disaccharides lie along one face of the PPII helix; also called agent 5; compound 5
Regarding B3, the “NGF-induced TrkA phosphorylation (Western blot, pTrkA/TrkA ratio) in PC12 cells” value in assay [5] is ~40%. In addition, the affinity in assay [1], expressed as Kd, was 137 nM. Also, the “fold stronger binding to NGF than agent 1 (by KD)” value in assay [6] is ~18 fold. Besides, the koff in assay [2] came to 0.0274 s⁻¹. In addition, the “fold increase in NGF binding as compared to 1” value in assay [4] was 4.6 fold. The molecule also displayed a kon in assay [3] of 46500 M⁻¹ s⁻¹.
